This note sets out measurements from article PMC2191820.

The data set has as its target T1, Ig/EBP-1 (C/EBP gamma) (mouse, UniProt P53568 1-150).
T1 sequence: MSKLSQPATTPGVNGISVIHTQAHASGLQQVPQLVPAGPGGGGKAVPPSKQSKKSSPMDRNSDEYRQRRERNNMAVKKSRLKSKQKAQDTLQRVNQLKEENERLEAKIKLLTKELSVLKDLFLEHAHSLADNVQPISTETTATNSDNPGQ
Briefly: EMSA. (In general: In EMSA bound probe runs differently from free probe, usually more slowly.)

B1: oligo A wt (dsDNA)
DNA 1: GATCCTGCCTTAGTCAACTTCCCAAGAACAGA
DNA 2: GATCTCTGTTCTTGGGAAGTTGACTAAGGCAG
In the case of B1, the binding result is recorded as “binds”.

B2: A mt13 (dsDNA)
DNA 1: GATCCTGCCCCTCGAGGTTCCCAAGAACAGA
DNA 2: GATCTCTGTTCTTGGGAACCTCGAGGGGCAG
Turning to B2, the binding result is “no binding”.
